The domain aggregation screens of Martell et al. (2025)

Experiment: soluble fraction after stress (log2 fold change); higher = more stays soluble; pooled small domains, quantitative proteomics
Conditions: stress: pH 4
In short: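 Following acid stress at pH 4, the amount of each small protein domain still soluble was measured in pooled custom libraries by high-throughput quantitative proteomics. Its fold change, on a log2 scale, is higher when more of the domain stayed soluble. This fold change is taken as a measure of aggregation propensity.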

| Sequence | soluble fraction (log2) |
| --- | --- |
| HMTTIRQQAEVPLSAAGRRFDQALAEMFPAYSRSRLSGWIKAGAATLDGAPAAPRQLLRGGERVELDVELE | -0.316 |
| HMSTPTVDTKTKLDLYNLLYKKDLNYLDAYNFVLDNFGSDNIDIMFKMLGLDFTNWVIENKPE | 0.0493 |
| HMKKSTLLLFFLKELLEGKKISLKSFALENDINIRTAQRYIEDIEEAFPDNLLKENDFYSFV | -1.05 |
| HMGIDRPLFTLAQFARQIGEQVKISLSLPQDGRRRLQGKVLSVGESGIVLDVDGREFTVAIGNVDKARL | -0.197 |
| HMAVETYRVKKSDTMQTIADRFGLSVEELLEYNQAYKTRELRARDILIIPSRKERKKLQQQKAQAAAQVVQ | 0.404 |
| HMSRLGINTTIEDIKMVGKIIMPLLKQGQSVYQILASHPEIPYSEKTLYSYIEDNIFKDAGIDISVFDL | -0.491 |
| HMFEDEPSEREIRISTLLAAFLKQEDGGTAVSRERFLKENSDVAEDLQILLEMADMIQEMAGP | -0.744 |
| HMTPQEQWNNAYLLAKDYYDANGNLDIDEKYKTKDGFELGSWLTTQRNVYKRGKLSPEKTKKLEEIGISF | -0.107 |
| HMVQVDNELTEFSVQSITRGIDALGEVTIRVTAPDGGVYTGRGADNDIIVSSTKAYLNALNRLLNDK | -0.552 |
| HMIPSEQYNTALTEIGLSTRAHNSLRRAGIMTLGQLIEKTRDGLPPLPGFGDKSQVEVQDLLTGLGYPI | -1.03 |
| HMVNGTPADPYDVLGVESSASPEELRAAWQTLVRQNHPDQLMARGVPLEAVKLAEARLVAINQAWDDLTK | -1.33 |
| HMKIERKGDESYLSFVERATSALSDGLIDYQQWGRAVVGEDLYSEENTRRIAKFFAQFIQNLEND | -1.6 |
| HMSFVEVTVSELKNYVNSHARIKLKSGKEFKGFILDANEEGVIIKVQLRGGTAESTISYNRIDRAAVF | -1.11 |
| HMNAVITTQKAKQIALAHAGLSEADVNYVKAELENDDGVQVYDIEFYSKNIEYDYDINAVTGEIMSFDHDI | -0.623 |
| HMIDSEEVMETIQDLGYSPVFDVKEKFYKIKEEQIGKITLEVHIILRYGMVDLVWIVRENGELLLG | -0.454 |
| HMYTVVVGDSPSLIADKTGVPLKELTAMNPNLSDNFLPGKQLL | -0.076 |
| HMYRYYSTLRPITPGAYPKPADNPAMLIHNFDNREYVGKIGREAWGYVEYNNPLTKEQIEAFDFVAE | -0.0236 |
| HMVSPLEKSQSFGSFEISREFARTLGLTSARNWENWAASDSRPINIPYSPNVFYKNKGWIDWSDWLGTE | -0.124 |
| HMSQLETEEAKRIVLKDLLRLYNNYNIIELEEDEFDRFITYLNMPYDFLQKTSDYDLAVSIKRMYASY | -1.79 |
| HMNEKFNVYPIPVYNNLNITGLSKPVTYLISSIDGKTIKNGVFQESIDVSDLKSGLYFLQVETKDPVKFIK | -0.999 |
| HMYNMEELAGHTEKVYNSLPEELKLVIKLREIENMSYDEISLKTGMPIGTVRSRLHRAREILVDSLKDY | -0.491 |
| HMATGTVKWFNPNKGFGFIQQDDASKDVFVHSNELNGVYINEGDKVEFDVVETEKGLSAQNIKK | 0.0939 |
| HMERKMKNNISDQTTYDTDKILNFNGKGYLNGLVIPNNYQIKEEGYYVFRQVALDGREQILYFTIQDLS | -1.56 |
| HMDAIDPKTVTSWADLWKPEYKSSLLLTDDAREVFQMALRKLGYSGNTTDPKEIEAAYNELKKLMPNVAAF | -0.474 |
| HMSMEQAKAEEIEKLGDNAPERLQAAALFAEKFFPQDVMDAVYKITETADGVRAIEHIMQTVK | -0.37 |
| HMQLVGSSAAVLIPAPAGGLGKIRLEFRGQTIDLIAKATDGGALIEGGAVTIVDVRDGQADVSV | -0.329 |

| Sequence | soluble fraction (log2) |
| --- | --- |
| HMLGAGFDSDLTARENIFLNGALLGHSRAVMRGYYDDIVNFAELHDFMDVPVKNFSSGMTSRLAFSIATIG | 0.183 |
| HMDLTIEQTTVLGKRLFSNALNSLGKKQRNIKKDAIESLLKRMNLKDMDQLYESIGIGDKSPLLMAQILL | 0.0239 |
| HMLNTLGADIRALRKARGLTLAELAQTLGRSVGWLSQVERDMSEPGINDLRDLARALDVSISSLFG | -0.366 |
| HMAESSLPKMPRDESKYIYHSVQPGETVYSLSKRYSVSESDIVKSNPGIDITKLSLGLEVAIPRI | 0.0402 |
| HMIDLPDIDIDFAKRTGVLEHITHTPARLETGKQHNTGVYFTDIPRGVDGLATMDHKRAEQLGYFKLDML | -0.172 |
| HMLFYSDLVRLISFAEATLGKNEFETWYMSHHQGMKYTEIAIALGISVRTVEDRIARTKNHFRKI | -1 |
| HMNLMQIHVARPPNQLGVFSQEEVAAGLQSGRFLPTDQAWRDGMSAWTPLSQWAEFSSVVAAV | -0.307 |
| HMESSREVSFSEFMKQIDSGRVSSVKLDGETIYVRNSDGTSYKVIQPLGTDLIGVLRKSDIDVQAIKQ | 0.165 |
| HMQVEEKNKKIELYIEGKIKELESNLMYVPNENKKKLLMAFMNRNEDIEIIKTKIDTIFNKSVAAYKENM | -0.894 |
| HMEPTPREIVVQQLGYRGLEVLGNAEYQFPKETQIIILKLAELISSGSVTETLEGGKLLALFRGVGINVR | -1.36 |
| HMKPATSITFIPSERPDLVEQLSKITFDKKDSLYENYINLNWLTFEAISVYMREGDIIGFST | -0.305 |
| HMHTTIIVASRDIAAGSVLTSHDLSSVAWVGGAVPKGSYTAADLAVGKTAFTAFQQGEPILESRLAS | 0.317 |
| HMETYTVSSKDGYANVRNEATVNSDLIAELKNGTLVTKFKEKGEWYYIEFEREDGTPFDYGYIHKSQLK | -0.224 |
| HMQRGRTFSIVLNWKGRLLSTQMFFPQFTRPTKEQVTFEINKVYPGAMVYYYNPIEKDPSQPLV | 0.0658 |
| HMGSWDDFFNAIRLDNPNTLQALLQRGFDPNTVDQQGTPALMRALQEQSYRAAEVLADHPQI | -0.584 |
| HMNYVFVLNEHGVRQTSYVVGLHADTLEKTEKLAKQTYPTSTIISGDSEMQSQFISGKAYVNGEFVDP | -0.192 |
| HMERLTVVPELLKRSLSEAQPLVTSARLRLEVSGGAPEDTSRAIVVGQKPPPGTRVQVGTTVIVTVQIQRP | -0.403 |
| HMNSKYILLQVSDIPKTSLVLERQFGVTEYSVQDEHTLRIYDTSLDMAAVNKALVVQDIAVISSQL | -1.3 |
| HMAPEPFIVQITASSLNVRKGPGTSYAVAQTVSKGQVFTIVQQQGGWGKLKSGAGWISLKYTAR | -0.0269 |
| HMVLSTRERMSNILATLKGGHFVNFSDLFTPEEGRLGVVVTFLAMLELIKESLLDIVQHEVLGPIHVKARV | 0.0323 |
| HMFKYRELLDWAKNRFDDLEVSIAPKALALLVESIGTDLRLLDSEIQKLSMYKPLEMISTNDVEDLVA | -1.15 |
| HMRPEFVVALSGADLGKLHRLYELGEVLSREDDAEGVTHAVLRVPDKHEHAFHAEFPQARPM | -0.19 |
| HMAAPVGLTQRQMEVAALVADGLTNAEIGRRLHITERSAESHLERVRIRLGFRSRAQVAAWFVTQE | -0.493 |
| HMTGLSFEEKDLLGNALKLLDETERRIVILHATSGLKHREIAKQLDIPLPTVLSKYTRAIKKLKKHME | -0.144 |
| HMTREAILDTAEELLQRRGYNAFSYHHIAVQLGIRNAAIHYHFPAKEDLGIELVSRFRIRLAE | -0.238 |
| HMARPLHVDALIHLGTEIGSRVGGAHAGPHLLVAGHSPMSELVYARLLGIPTLGWMRGQLTFVNLSK | 0.108 |

| Sequence | soluble fraction (log2) |
| --- | --- |
| HMEIELHNLALNIKEFRKKNKLSQAELAEKLGVARTTIGYYERAEVEPNIYTLVQLSKLMNRSIDSLLGL | -0.0684 |
| HMLDIVVGSTGYALGEITDHSGTVRVNGDTWTARLVDAAGPVEDGDRVEVYAVEGTTLLVYPS | 0.128 |
| HMSDTMTVTNVKYAIYLRSTPSEASDANIIMEIPVGSKVTYLDTPNNTFYKISYGGTVGYSKQIYLTF | -0.482 |
| HMRLMLITPTEFDEAAEIADNLKDRRAVLMNVEKTDNETARRLIDFLSGVVYALGGKIMRISAQAYVLT | -0.228 |
| HMEMSLGEKLKQARLTKNFSQEYMAEVLQISQKTYSNFENNKTKPDFSQIEEISKVLETSILEFLT | -0.0931 |
| HMQNKRQEQLLALLAERRDYMTSRQLAEILQVSDRTIRSDVEAINRRSSPPPIESNVRQGYRLNPEA | -0.0908 |
| HMIGITTANLNVRTGTDTNYTSIAILPKGTKVNILEENVKPGWYKIQFDEIYAFVSSKYIKIQS | 0.243 |
| HMQINDSSVVQKAVNDVIDQNSKAVSDYWDGKEGAAKFLMGQVMKLTRGQANPDLANQLILTRLQQERV | 0.182 |
| HMNDLVTWDRYKIELGDTLSEIAQKLVTRVDILKTVNQIQGTRIIAGNSLMVPRTTDTNVLTYL | -0.728 |
| HMHPEITLHPVRANIYSISVKNATSMEIYSVSGQLVGIRELKEGTNTLDLTGYINGVYIVNLQNKAFKLVK | -0.465 |
| HMKMQIGEIIRKYRKSNHMTQEEMAERLGVSAPAVNKWENGNSMPDIMLLAPITRLLGISLDELLSFE | -0.581 |
| HMSEKAQSENEDLIKILALLIHAAKIDENYSEKEKKLIISFAEMSSNKKLDREQINSLVDKAEQYEK | -0.507 |
| HMQYIINFEYSGMLLREYLRGVLGLSHGTLTALKKDPLGILLNGEHATVRAVLHAGDRLTLALE | -1.13 |
| HMSSGNLESLLNKLHNEDYFVRLDAVKALGALGDPGAIDYLIEMLSENGIMRGWVANSLAALGEAQWKKII | -1.44 |
| HMAVGTASNLIGKDIEAYAPIDGSQSSDDTKTISGKVESVHIKDGVVYMNVKDSQSENIIEVEYGALIKVN | 0.247 |
| HMLPPLGDQELELLRFITESAPITVREAAESYGKDRGLARTTVLTMMERLRAKGYLTRSESGAANEYSP | -0.148 |
| HMNTLPTDELMKYGIINEDLSFSKKLNADDIQKFLQGYTIVADNDKNRATFQLTENNTKLKVIFLER | -1.69 |
| HMVDKSYIHNQQVASDTWTVQHNLGKYPAVSVADTGNNEVYGDVRHINENTVELKFSHPFSGVAFF | -0.0737 |
| HMANKTISMTTLKLVIQQLSKGISRQSISAQYHISRNTIKKYEKRIKAMDMKIEDILKLSDEEISNLLQ | -0.273 |
| HMGTDVFIMTGGTRKRGATWSYYFDLGKIDGKRQKKEKGGFKTKKEAETALAKAINEYNNAGA | 0.175 |
| HMLSGNLTADAHVHRGLQALSDGRNEDALVDFTKATEVQADFAEAWNKRATVNYLLGRYDAAVLDIQKTLE | 0.0958 |
| HMTTLLNHLKGTRLEAGLSQQALARLAGISRQAYSALESGSSNPSTEVALRLARALKTSVDHLFSLPE | 0.0864 |
| HMSISSIDFENLKSDELSDAQITQIYRQAQEQGLSIDELSSLAIARGMSPTEVAKLRSRFNSIP | 0.00293 |
| HMNTLGTNIAKLRESQKLTQEELGKLSGVSRVSIYKIETGQSTPRDTTLQNIAEALHTTPSALRS | 0.22 |
